Data published in patent publication US11286304B2, “Anti-galectin-7 antibody, kit comprising the same, and uses thereof” (Academia Sinica, priority 2018, dated 2022).

B1: IL-22: immune stimulus (protein, UniProt Q9GZX6 34-179, looked up)
Interleukin-22: APISSHCRLDKSNFQQPYITNRTFMLAKEASLADNNTDVRLIGEKLFHGVSMSERCYLMKQVLNFTLEEVLFPQSDRFQPYMQEVVPFLARLSNRLSTCHIEGDDLHIQRNVQKLKDTVKKLGESGEIKAIGELDLLFMSLRNACI
B2: IL-23: cytokine known to promote psoriatic inflammation (protein, UniProt Q9NPF7 20-189; P29460 23-328, looked up)
Interleukin-23 subunit alpha: RAVPGGSSPAWTQCQQLSQKLCTLAWSAHPLVGHMDLREEGDEETTNDVPHIQCGDGCDPQGLRDNSQFCLQRIHQGLIFYEKLLGSDIFTGEPSLLPDSPVGQLHASLLGLSQLLQPEGHHWETQQIPSLSPSQPWQRLLLRFKILRSLQAFVAVAARVFAHGAATLSP
Interleukin-12 subunit beta: IWELKKDVYVVELDWYPDAPGEMVVLTCDTPEEDGITWTLDQSSEVLGSGKTLTIQVKEFGDAGQYTCHKGGEVLSHSLLLLHKKEDGIWSTDILKDQKEPKNKTFLRCEAKNYSGRFTCWWLTTISTDLTFSVKSSRGSSDPQGVTCGAATLSAERVRGDNKEYEYSVECQEDSACPAAEESLPIEVMVDAVHKLKYENYTSSFFIRDIIKPDPPKNLQLKPLKNSRQVEVSWEYPDTWSTPHSYFSLTFCVQVQGKSKREKKDRVFTDKTSATVICRKNASISVRAQDRYYSSSWSEWASVPCS

Legend:
Format in all cases: cell-based, human
IL-8 = IL-8 production by keratinocytes (ELISA); settings: HaCaT and HEKn cells subjected to immune stimuli, ELISA
Protocol: (§1) To measure the concentrations of proinflammatory cytokines secreted by keratinocytes, 2×10^4 cells were seeded in 96-well plates. Cells were incubated for 24 hours and then treated with 50 μg/ml LPS, 100 ng/ml human TNF-α, 100 or 200 ng/ml human IL-17A, 200 ng/ml human IL-22, 100 ng/ml human IL-23, or 50 ng/ml IFN-γ at 37° C. for 48 hours. In addition, the MEK inhibitor PD98059 was added along with stimulation by LPS or IL-17A (48 hours). The supernatants were then collected and analyzed by ELISAs, which were performed using a specific combination of paired antibodies (capture and detection antibodies).

IL-6 = IL-6 production by keratinocytes (ELISA); settings: HaCaT and HEKn cells subjected to immune stimuli, ELISA
Protocol: as §1

galectin-7 = experiment: Galectin-7 expression in keratinocytes (real-time PCR, immunoblot); settings: HaCaT cells, treated with cytokines for 2 days, immunoblot
Protocol: Human keratinocyte cell line HaCaT was maintained at 37° C. in Dulbecco's modified Eagle's medium (DMEM) supplemented with 10% of fetal bovine serum (FBS), 2 mM glutamine, 100 U/ml penicillin and 100 μg/ml streptomycin. Short hairpin RNA (shRNA) reagents were obtained from the National RNAi Core Facility located at the Institute of Molecular Biology and Genomic Research Center, Academia Sinica, supported by the National Core Facility Program for Biotechnology Grants of NSC. Four shRNAs with clone IDs of TRCN0000057393, TRCN0000057394, TRCN0000057395, and TRCN0000057396 were used to generate stable galectin-7 knockdown HaCaT clones. HaCaT cells were infected with one of the four shRNA-expressing lentiviruses and puromycin was employed to select stable cell clones after 3 days of infection. After puromycin selection, four individual pooled clones were cultured in puromycin-free medium for 2 weeks before further analysis. […]
Cells were harvested and lysed in RIPA lysis buffer containing 1% of Triton X-100 and a protease inhibitor cocktail, and total protein concentrations were measured with a protein assay kit. Proteins in the samples of the lysates with the same amounts of total protein were separated by sodium dodecyl sulfate polyacrylamide gel electrophoresis (SDS-PAGE) and analyzed by immunoblotting. […] Protein quantification was performed by software. […]

Row | Molecule | IL-8 production (IL-8) | IL-6 production (IL-6) | galectin-7 protein expression (galectin-7)
1 | B1 | only IL-17A (FIG. 2), TNF-α, and LPS (data not shown) induced | only IL-17A (FIG. 2), TNF-α, and LPS (data not shown) induced | 
2 | B2 | only IL-17A (FIG. 2), TNF-α, and LPS (data not shown) induced | only IL-17A (FIG. 2), TNF-α, and LPS (data not shown) induced | modest effects
